# Patent US6638724
# Test system: T1, human BLNK-1 (B cell LINKER PROTEIN, 70,000 Mr protein)
# T1 sequence: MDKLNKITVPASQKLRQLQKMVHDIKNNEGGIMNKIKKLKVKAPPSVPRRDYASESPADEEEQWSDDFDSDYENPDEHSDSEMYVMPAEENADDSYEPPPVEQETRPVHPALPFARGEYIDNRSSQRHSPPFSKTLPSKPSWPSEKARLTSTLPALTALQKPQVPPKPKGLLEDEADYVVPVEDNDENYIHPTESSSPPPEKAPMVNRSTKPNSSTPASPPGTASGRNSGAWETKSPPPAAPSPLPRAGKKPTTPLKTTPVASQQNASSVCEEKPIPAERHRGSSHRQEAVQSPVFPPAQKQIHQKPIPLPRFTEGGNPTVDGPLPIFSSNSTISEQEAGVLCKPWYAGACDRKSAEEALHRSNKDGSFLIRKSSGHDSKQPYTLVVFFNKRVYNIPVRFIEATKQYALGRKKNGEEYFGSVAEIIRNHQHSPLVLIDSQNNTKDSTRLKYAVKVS
substance,measurement,value
Syk protein tyrosine kinase,tyrosine phosphorylation of BLNK,"Syk can phosphorylate BLNK when co-expressed in insect cells, and in vitro"
